From article PMC11417369, “DNA sequence and chromatin differentiate sequence-specific transcription factor binding in the human malaria parasite Plasmodium falciparum”

T1: AP2-LT D1 (Plasmodium falciparum, UniProt Q8IAM1 2520-2577)
T1 sequence: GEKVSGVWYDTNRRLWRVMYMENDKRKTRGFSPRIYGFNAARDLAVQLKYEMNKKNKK

B1: CACACA_site8242 (dsDNA)
DNA 1: AATTTACACGTACGTGTACACACAAAAATATGTTTT
DNA 2: AAAACATATTTTTGTGTGTACACGTACGTGTAAATT
B2: CACACA_site1961 (dsDNA)
DNA 1: ATTTTTTAACATATCATACACACAACCACTTTTTAT
DNA 2: ATAAAAAGTGGTTGTGTGTATGATATGTTAAAAAAT
B3: CACACA_site5015 (dsDNA)
DNA 1: ACCTCATAATATTTAACACACAAAATTATCTGTATG
DNA 2: CATACAGATAATTTTGTGTGTTAAATATTATGAGGT
B4: CACACA_site699 (dsDNA)
DNA 1: ATTTATATATAATATACACACATATAATCCACATAT
DNA 2: ATATGTGGATTATATGTGTGTATATTATATATAAAT
B5: CACACA_site5706 (dsDNA)
DNA 1: CTATTTTGGATGTGTACACATATATATATTTATATT
DNA 2: AATATAAATATATATATGTGTACACATCCAAAATAG
B6: CACACA_site960 (dsDNA)
DNA 1: TGAATATTTACTTTAGCACACAATTTGTATTTGATT
DNA 2: AATCAAATACAAATTGTGTGCTAAAGTAAATATTCA
B7: CACACA_site1083 (dsDNA)
DNA 1: CTACACAAGCATTAAACACACAAAAGGGATACTTTG
DNA 2: CAAAGTATCCCTTTTGTGTGTTTAATGCTTGTGTAG
B8: CACACA_site1139 (dsDNA)
DNA 1: TCTGTTAATATTTATACACACATATATATATATATA
DNA 2: TATATATATATATATGTGTGTATAAATATTAACAGA
B9: CACACA_site3695 (dsDNA)
DNA 1: AAGCTTCATTAATATACACACATATATGCGTATATT
DNA 2: AATATACGCATATATGTGTGTATATTAATGAAGCTT
B10: CACACA_site3128 (dsDNA)
DNA 1: CCACTAATAAATATTACACACATATATATATATATT
DNA 2: AATATATATATATATGTGTGTAATATTTATTAGTGG
B11: CACACA_site2254 (dsDNA)
DNA 1: TTTTTTTTTATTATCATGCACACATTTTTTTTTTTT
DNA 2: AAAAAAAAAAAATGTGTGCATGATAATAAAAAAAAA
B12: CACACA_site4591 (dsDNA)
DNA 1: CACATACAGATATATACACACAAATATATATACTCA
DNA 2: TGAGTATATATATTTGTGTGTATATATCTGTATGTG
B13: CACACA_site656 (dsDNA)
DNA 1: ACAATATCTAGATACACACACATATCTCTCAATCTA
DNA 2: TAGATTGAGAGATATGTGTGTGTATCTAGATATTGT
B14: CACACA_site5230 (dsDNA)
DNA 1: ATAATATCATCAAACGCACACATACATAAATATATT
DNA 2: AATATATTTATGTATGTGTGCGTTTGATGATATTAT
B15: CACACA_site3715 (dsDNA)
DNA 1: ATATATATATAATAAACACACAAATAGATATAACAT
DNA 2: ATGTTATATCTATTTGTGTGTTTATTATATATATAT
B16: CACACA_site651 (dsDNA)
DNA 1: ATACATATAGGATGCACACATAATTCAAATACAATA
DNA 2: TATTGTATTTGAATTATGTGTGCATCCTATATGTAT
B17: CACACA_site8178 (dsDNA)
DNA 1: TACATATAAACAATAACACACACCTAGGTACATGGA
DNA 2: TCCATGTACCTAGGTGTGTGTTATTGTTTATATGTA
B18: CACACA_site2284 (dsDNA)
DNA 1: AAAAAAAAAAAAGGCACACAAACATATGTAGACATA
DNA 2: TATGTCTACATATGTTTGTGTGCCTTTTTTTTTTTT
B19: CACACA_site4122 (dsDNA)
DNA 1: AAAACAAACACATTTACACACATAAATAAATCAATT
DNA 2: AATTGATTTATTTATGTGTGTAAATGTGTTTGTTTT
B20: CACACA_site3522 (dsDNA)
DNA 1: ATATAAAATAGACACGCACACAAAAAAAAAAAAAAA
DNA 2: TTTTTTTTTTTTTTTGTGTGCGTGTCTATTTTATAT
B21: CACACA_site8658 (dsDNA)
DNA 1: AACGAAAGAAAAAAAGCACACACAGTTTTGAGCAAT
DNA 2: ATTGCTCAAAACTGTGTGTGCTTTTTTTCTTTCGTT
B22: CACACA_site1293 (dsDNA)
DNA 1: CACACCCACAAAAACACACACAAAGGTGTTCTTATA
DNA 2: TATAAGAACACCTTTGTGTGTGTTTTTGTGGGTGTG
B23: CACACA_site2704 (dsDNA)
DNA 1: GCCATTGTACCATCCACACACATATATATATGTATA
DNA 2: TATACATATATATATGTGTGTGGATGGTACAATGGC
B24: CACACA_site2529 (dsDNA)
DNA 1: ACCTAAAATAACTACACACACATAAAAAAAAAAAAA
DNA 2: TTTTTTTTTTTTTATGTGTGTGTAGTTATTTTAGGT
B25: CACACA_site8515 (dsDNA)
DNA 1: ATAATATATATACAAACACACAATTGCGTCCACATT
DNA 2: AATGTGGACGCAATTGTGTGTTTGTATATATATTAT
B26: CACACA_site8439 (dsDNA)
DNA 1: AGGTGAGCTCAGACTACACACACAAAGAAAAAAATA
DNA 2: TATTTTTTTCTTTGTGTGTGTAGTCTGAGCTCACCT
B27: CACACA_site1627 (dsDNA)
DNA 1: AAGAAAAAGATGCGCATACACACAGATGAATAACAA
DNA 2: TTGTTATTCATCTGTGTGTATGCGCATCTTTTTCTT
B28: CACACA_site5877 (dsDNA)
DNA 1: TATAGCATATCTCACACACACATAATGAATATTATA
DNA 2: TATAATATTCATTATGTGTGTGTGAGATATGCTATA
B29: CACACA_site841 (dsDNA)
DNA 1: GGCATGACTATCTGCACACATAAAAATAAGAAATAC
DNA 2: GTATTTCTTATTTTTATGTGTGCAGATAGTCATGCC
B30: CACACA_site1127 (dsDNA)
DNA 1: TATTTTTCCATATGCACACACACCGTATATATAATA
DNA 2: TATTATATATACGGTGTGTGTGCATATGGAAAAATA
B31: CACACA_site1322 (dsDNA)
DNA 1: CACGAACACAAACACAAACACACATCATATATATAT
DNA 2: ATATATATATGATGTGTGTTTGTGTTTGTGTTCGTG
B32: CACACA_site9215 (dsDNA)
DNA 1: ATATATATATATATTCCACACACACCCAAAAAAAAA
DNA 2: TTTTTTTTTGGGTGTGTGTGGAATATATATATATAT
B33: CACACA_site1334 (dsDNA)
DNA 1: ATTACATACACGCGCACACACAAAAAAAAAAAAAAA
DNA 2: TTTTTTTTTTTTTTTGTGTGTGCGCGTGTATGTAAT
B34: CACACA_negctrl_site1629 (dsDNA)
DNA 1: TTTTTCTTTCTATTTATCAATATTAAAAAAAAAAAA
DNA 2: TTTTTTTTTTTTAATATTGATAAATAGAAAGAAAAA
B35: CACACA_negctrl_site1701 (dsDNA)
DNA 1: TTTTTTCAATTTTTTTTAAATAAACCACAAAAAAAA
DNA 2: TTTTTTTTGTGGTTTATTTAAAAAAAATTGAAAAAA
B36: CACACA_negctrl_site108 (dsDNA)
DNA 1: TTTTTAATTTAAAAAAATAATATTTTATATTCCGAA
DNA 2: TTCGGAATATAAAATATTATTTTTTTAAATTAAAAA
B37: CACACA_negctrl_site344 (dsDNA)
DNA 1: TTTTGAATATGGATCTTATATATATTAAATAAATAA
DNA 2: TTATTTATTTAATATATATAAGATCCATATTCAAAA
B38: CACACA_negctrl_site884 (dsDNA)
DNA 1: TATTAATCTTTTTTTAAACAAAAAATTAAGCAAATT
DNA 2: AATTTGCTTAATTTTTTGTTTAAAAAAAGATTAATA
B39: CACACA_negctrl_site1118 (dsDNA)
DNA 1: ATTATCAAAAAAAAAAAAAAAAAAAAAAAAAAAAAA
DNA 2: TTTTTTTTTTTTTTTTTTTTTTTTTTTTTTGATAAT
B40: CACACA_negctrl_site1568 (dsDNA)
DNA 1: TTTTTTATAAATCAAATGAAAAATAAACTATTCAGA
DNA 2: TCTGAATAGTTTATTTTTCATTTGATTTATAAAAAA
B41: CACACA_negctrl_site1823 (dsDNA)
DNA 1: TATTTCATCTTATTTTAGGAAAAACTAATATATAAG
DNA 2: CTTATATATTAGTTTTTCCTAAAATAAGATGAAATA
B42: CACACA_negctrl_site170 (dsDNA)
DNA 1: TTTGTTAAAAATATATTATGAATAAAAATATATTTT
DNA 2: AAAATATATTTTTATTCATAATATATTTTTAACAAA
B43: CACACA_negctrl_site1706 (dsDNA)
DNA 1: TTACACATATTTTTAATTATTCTGAATTCAAAAAAA
DNA 2: TTTTTTTGAATTCAGAATAATTAAAAATATGTGTAA
B44: CACACA_negctrl_site736 (dsDNA)
DNA 1: TACTTATATTATTTTATTATTAAATTTAAAACGAAA
DNA 2: TTTCGTTTTAAATTTAATAATAAAATAATATAAGTA

Target: T1, AP2-LT D1
Test: gcPBM; about 25 ug protein; PBS, 1% milk, 0.2 mg/ml BSA, salmon testes DNA, 0.03% Triton X-100
Details: tags: N-terminal GST (pGEX-4T-1), kept; label: surface-attached array probe

Binder | binding signal
B1 | 9.37 ln median PBM intensity, better of two orientations
B2 | 9.38 ln median PBM intensity, better of two orientations
B3 | 9.39 ln median PBM intensity, better of two orientations
B4 | 9.4 ln median PBM intensity, better of two orientations
B5 | 9.41 ln median PBM intensity, better of two orientations
B6 | 9.42 ln median PBM intensity, better of two orientations
B7 | 9.43 ln median PBM intensity, better of two orientations
B8 | 9.45 ln median PBM intensity, better of two orientations
B9 | 9.46 ln median PBM intensity, better of two orientations
B10 | 9.47 ln median PBM intensity, better of two orientations
B11 | 9.48 ln median PBM intensity, better of two orientations
B12 | 9.49 ln median PBM intensity, better of two orientations
B13 | 9.5 ln median PBM intensity, better of two orientations
B14 | 9.51 ln median PBM intensity, better of two orientations
B15 | 9.52 ln median PBM intensity, better of two orientations
B16 | 9.54 ln median PBM intensity, better of two orientations
B17 | 9.55 ln median PBM intensity, better of two orientations
B18 | 9.56 ln median PBM intensity, better of two orientations
B19 | 9.58 ln median PBM intensity, better of two orientations
B20 | 9.59 ln median PBM intensity, better of two orientations
B21 | 9.6 ln median PBM intensity, better of two orientations
B22 | 9.62 ln median PBM intensity, better of two orientations

Binder | binding signal
B23 | 9.64 ln median PBM intensity, better of two orientations
B24 | 9.65 ln median PBM intensity, better of two orientations
B25 | 9.67 ln median PBM intensity, better of two orientations
B26 | 9.69 ln median PBM intensity, better of two orientations
B27 | 9.7 ln median PBM intensity, better of two orientations
B28 | 9.72 ln median PBM intensity, better of two orientations
B29 | 9.74 ln median PBM intensity, better of two orientations
B30 | 9.79 ln median PBM intensity, better of two orientations
B31 | 9.81 ln median PBM intensity, better of two orientations
B32 | 9.85 ln median PBM intensity, better of two orientations
B33 | 9.87 ln median PBM intensity, better of two orientations
B34 | 8.1 ln median PBM intensity, better of two orientations
B35 | 8.15 ln median PBM intensity, better of two orientations
B36 | 8.25 ln median PBM intensity, better of two orientations
B37 | 8.27 ln median PBM intensity, better of two orientations
B38 | 8.28 ln median PBM intensity, better of two orientations
B39 | 8.29 ln median PBM intensity, better of two orientations
B40 | 8.3 ln median PBM intensity, better of two orientations
B41 | 8.32 ln median PBM intensity, better of two orientations
B42 | 8.37 ln median PBM intensity, better of two orientations
B43 | 8.38 ln median PBM intensity, better of two orientations
B44 | 8.39 ln median PBM intensity, better of two orientations
